# In US20110275122A1 (Amgen, published 2011):
# Columns and labels:
# human mpl receptor [1] = target: T1, human mpl receptor (human, UniProt P40238 26-635); test: cell-based or functional assay
# T1 sequence (looked up): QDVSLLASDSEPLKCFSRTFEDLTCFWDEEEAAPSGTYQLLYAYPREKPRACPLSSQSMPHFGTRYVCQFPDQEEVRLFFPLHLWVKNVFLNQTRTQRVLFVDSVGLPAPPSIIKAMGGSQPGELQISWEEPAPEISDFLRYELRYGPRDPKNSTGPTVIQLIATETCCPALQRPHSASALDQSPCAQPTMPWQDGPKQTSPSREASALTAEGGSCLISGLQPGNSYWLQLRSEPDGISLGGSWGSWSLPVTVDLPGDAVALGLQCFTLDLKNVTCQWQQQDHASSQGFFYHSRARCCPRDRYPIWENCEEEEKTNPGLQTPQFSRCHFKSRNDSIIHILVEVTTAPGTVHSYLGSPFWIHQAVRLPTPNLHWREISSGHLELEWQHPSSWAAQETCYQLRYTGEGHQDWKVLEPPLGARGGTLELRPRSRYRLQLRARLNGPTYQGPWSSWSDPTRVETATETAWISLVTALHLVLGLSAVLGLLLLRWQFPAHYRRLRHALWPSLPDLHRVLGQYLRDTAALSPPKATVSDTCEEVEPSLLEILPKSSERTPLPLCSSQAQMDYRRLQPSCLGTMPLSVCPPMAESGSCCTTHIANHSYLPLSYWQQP
# human mpl receptor [2] = target: T1, human mpl receptor; test: cell-based or functional assay; remark: listed apart in the source
binder,measurement,setting,value
Fc-Loop (Sym) (SEQ ID NO: 243) (Fc fusion) MDKTHTCPPCPAPELLGGPSVFLFPPKPKDTLMISRTPEVTCVVVDVSHEDPEVKFNWYVDGVEVHNAKTKPREEQYNSTYRVVSVLTVLHQDWLNGKEYKCKVSNKALPAPIEKTISKAKGQPREPQVYTLPPSRDELGGQGCSSGGPTLREWQQCVRMQHSGGTKNQVSLTCLVKGFYPSDIAVEWESNGQPENNYKTTPPVLDSDGSFFLYSKLTVDKSRWQQGNVFSCSVMHEALHNHYTQKSLSLSPGK,In vitro EC50,human mpl receptor [1],9.9 pM
same,EC50 on 32Dc123/Mpl,human mpl receptor [2],10 pM
